Results: the DeepSol protein solubility set

Test: soluble on expression in E. coli; label from the status in PepcDB or PDB records

| Sequence | soluble on expression in E. coli |
| --- | --- |
| MLEFDTTQDQLANIKVIGVGGGGNNAVNRMIEHGVQGVDFIAVNTDAQALNLSKAETKMQIGGKLTRGLGAGANPEVGKKAAEESKEQIQEALRGADMVFVTAGMGGGTGTGAAPVVAQVAKELGALTVGVVTRPFTFEGRKRATQAASGIAAFKENVDTLIVIPNDRLLEIVDKNTPMLEAFREADNVLRQGVQGISDLIATPGLINLDFADVKTIMSNRGSALMGIGSGNGENRAAEAAKKAISSPLLETSIDGAQGVIMNITGGANLSLYEVQEAADIVASASDPEVNMIFGSVINEGLKDDIVVTVIATGFDDSIATQPPKPIIRPNVNHTQQQQQPVAQPPKQREVKREMKREEPVVHERHSDSDSDDIDIPAFLRNRRRR | not soluble |
| MRSAFRVIRTVREKHACTQCDAIVQAPAPSRPIERGIAGPGLLARVLTSKYAEHTPLYRQSEIYGRQGVELSRSLLSGWVDACCRQLSPLEEALHGYVLTDGKLHADDTPVPVLLPGNKKTKTGRLWTYVRDDRNAGSTLAPAVWFAYSPDRKGIHPQTHLAGFSGVLQADAYAGFNELYRDGRITEAACWAHARRKIHDVHVRTPSALTEEALKRIGELYAIEAEIRGMTAEQRLAERQLKTKPLLKSLESWLREKMKTLSRHSELAKAFAYALNQWPALTYYADDGWAEADNNIAENALRMVSLGRKNYLFFGSDHGGERGALLYSLIGTCKLNGVEPESYLRYVLDVIADWPINRVGELLPWRVALPTE | not soluble |
| DVLAVTSCPSGVAHTFLAAKSLEKAACALGIKIKVETQGANGVINRITEKDIEKAKFVIFAHDVAIKEPERFRKIKVLDVTTKDAMLNATALLQARRVS | not soluble |
| MGSDKIHHHHHHMKFYEDGNIPEIPNMYFIYGDGGTGKTSLLKQLKGHKFVFSFDMSSNVLIGDKDVDVVIFEHNDAPNIQAMVEECIIRAIQNAKYQVIVLDNVTALQNLVLENIDNAAKDNRQNYQKLQLWFRDLGTILKESGKTIYATAHQLDNGSSGISGEGRFQADMNEKTFNAFTSMFDLVGRIYLAAGERMIDLDPEKGNHAKNRLDDRKLIKANELIQSEKGEK | not soluble |
| SMGKEKSKEPRDPDQLYSTLKSILQQVKSHQSAWPFMEPVKRTEAPGYYEVIRFPMDLKTMSERLKNRYYVSKKLFMADLQRVFTNCKEYNPPESEYYKCANILEKFFFSKIKEAGLID | soluble |
| MGSDKIHHHHHHMELDILDALGEGWTLTPAGGITGEAYIASTGQSKLFLKRNSSPFLAILSADGIVPKLLWTKRIYSGDVISAQQFIEGQELEPEMMERPEVARLLGKIHDSKELLFMLQQLDQRPIEPDELLRQCRLYFQPAELAQPELIEQAIDYLSERLPYVRTDEQVVCHSDLNHNNWLVGTDGHLYLNDWDDAIIADRAYDLGMMLYSYVDEECWPEWFAHYGHPLTKDLKQRMYWYVVAQAVLSIYWYEDTMHPDATESYLFLAQLLEMEQED | not soluble |
| MSGAEQKVAYSLVSSGSLMSVNPGMARWIKELFCHNERVVLTGDWKHGFLSLTAVGATNVGSIRIHFN | not soluble |
| MGHHHHHHSHMGQFYEAESCLVEAGRLPAGQRRFAHFPGLASELLLTGLPLELIDGSTLSMPVRWVTGLLKELHVRLERRSRLVVLSTVGVPGTGKSTLLNTMFGLRFATGKSCGPRGAFMQLITVAEGFSQDLGCDHILVIDSGGLIGGALTSAGDRFELEASLATLLMGLSNVTVISLAETKDIPAAILHAFLRLEKTGHMPNYQFVYQNLHDVSVPGPRPRDKRQLLDPPGDLSRAAAQMEKQGDGFRALAGLAFCDPEKQHIWHIPGLWHGAPPMAAVSLAYSEAIFELKRCLLENIRNGLSNQNKNIQQLIELVRRL | not soluble |
| MSLADKVVNIGFSGPLSGGAAAYGKDTLSGLQMAVDTLNKSGGIKVGNDKVTFKVVSLDDRYLPNETATNVKRLTGQDIQFIFVPHAGGIQAVQPLAIRDPEFLLVAYSSEPKILAANNPLTFMLPPRYDNYAQPFVATEMKTFGKKLALVGTSSAYGKQWADLIESEWKKQGGTVGRDNAVDYNTTVDFSAAVTKALSEKPDVLFIGGPSQPTALVIKAAREQGFKGGFIVMDQAKFEQMETVIPKNYLDGSVGVLPTRDFPGTQSFVVQYQRAYKKIPTSEAGLNYMGMNVLAKAMELAGTTSDPRKVRAQLDAAAKALPQSKTVYKVFGVTPQATWTPSEGHHHHHH | soluble |
| MVLSCRVVDCGGLKLKENQTLLLLVSTIHNSSEVGKLSIDAEEKRSKEWLEMPCAEGMLSLKLTLWQDLLKGINSVFHGQVRVDVDENWKSGPAKWFYLRSKANEDGEGGEDGGDIGDATVKVTYQIDHILRMQVYKPLLDLLFLAGDVQPLTASLVAVIEALPKVELGPVSRSLVELMAQSDRIRPVLSSLYVNSILKCQDENTLFRGQSLSGKMLFEILTTYGKMYLITTLKPVVDKIYKERKNCEVDPARVAVGASLEKNRNNLLVYFQMLFERVTTSSTNCPHLIKQLLYDLRNVVGTHSSRSGVQRLAVSSFVIMRFFAAAILNPKAFEIRKDQPDLRVSRTLLLLSKLLQRLSNCSVSEGPLSSKEIWLNGVFETVTSEQHKSVMASFLDNISLVGDRSEPQKCTVFKFGNLQQVDRSRLAWKKVLHYKKRYVQLTNTHLIWQKDVQCAPKGTVPLSDIKFVNVDNKNIITIVCETMQLQFEAPGGVEATDWLNAIERQRNRAAHEIAETPGEHFFVDAERHVDKIHTLLYKYRETMIEWRDQLQSNVELDEKTAPELLKASYVVEEERQSHKDSLIATLCSTIDVTDAIQLAHTEYEKENKVSRRIDAIITAKKRQKSFSVK | not soluble |
| MSLNIHIHSMTGFANAAAECGSKRINLDIRAVNHRFLDIQIRMPDDLRYLESGIREKISSHIARGKVECKIQIQDTENSRQSLELNSDLVNQLAEINKNLRKHHDLAKLGVADILRFPGVLASQRENTEELAKSITELTEKALKDFTAARRREGKKLGEHLLQRLESMEEIIDALSELFPTLLETHKEKIRARLVEAVGDINNDRLQQEFALFIQKSDIDEEFSRLRTHIAEVRRIVTEHKGSSGKRLDFLMQELNREANTLGSKSIAAECTQASVELKVLIEQMREQVQNIEEGHHHHHH | soluble |
| MAMDLRDPNVWISHLLENLPEEKLASALKDDNPDWEYIDGEIVKLGSLAHAQLDIPELQRRGLQLLASESKDFRLLAHLLRTLQHAGDPLLALHLLTLYVEHYWTVAAPQNMAHKKRFASQIIKRFETVLKAFHKTLPQRSAILCWVSWRNWRSAGSHITSRNWHRLPMIFLPCTSVRLIVRLLLRSPLRRPPVVHHKPPSRLKAA | not soluble |
| MAHHHHHHMSYLLHSSSYAAATAAAERDGPARGAGGGPLNVVLSRVRSLLHGEPSRVARATSIIDDGSSGSLKRAERHSGASSASRREVLLPLTHDSARVARVPEVSGFIEHGGGFAIPAAKASPRTAPTPVAPPTTNESPVHRPPSARPVDAARDASLYERAVDYTDLEEILRCPLPPVPGCPTPCAFGRHSAGLSSDGSVTAAATLSPPPAPSSARQPPLVFRCIAADSDTGISVYSTPAEDCPMHLMRAYAVLPCSPGDVLQYMDNDIRPRWDSHLRRSALLRELTPPEQTKAVERQYRLSTSIGTAGAAVSQRSPTSLSAQSQGALRQRASSSPRTTGAIHGGCGSAVVSGPATAAASSPTAFQYLPGQRRVAIHYLETRSPVPFVQDRDFEIVVAEEVRPDDTAYVKAFSTPLGYHMPLGPHQSRYVRAVVVLSGMVARPLDAARVEEVLPPVLLRHHRAAAQHGNIQVAGIATKKPSASATVCGDAAARAACVAAPHRYCVVEYVGLVHPMGLLPAVLVNMIISAQLNAMRKMQAFIMQHPMSTLRPRSATHAATGEATGQPLQELLVSLQSLSPSPRKSSRMGKSQESDAAGRTREVKPEATGASAASVSAPLAASPAPVWWRRQMHRFASNL | not soluble |
| MIACICAITVMAQVQTHDVKGVVFDRRQQPIVGALVTAKGTNISTITDVDGKFLLQEVPLSVKKVVVTSIGMETREVDLNVPVQLTGKRKKVSFVAHAGLSMSKYTIYGSDFKVGYEFGLGIEVRMSKRWAFQPTLQICNHGAEFNAERYGVKYQETWNPVSLDLPMLFILRCPIARKMNLAFSMGPVFSYGFAGKVKASETGKPDEEYDIYSSEYEYDYSGGKHSLLHPFSFGVAYGIGVEYKKWLAGISGKSMCLGQDDEGFEAKEHNLVLTLGVIYRF | not soluble |
| FPEKVKSLTLIDSFGFICAPEEQMTDQLRRGLLSRMKSANTTRSFTEETAVKARLHVSDLTVEHAKLIVKRSLIEIEPKSMDTVGVDSASILYRWRSDPRLRSVSPYRLSLKQGQQLFSDIKCPLQLIYGDKGMKMVVTGLKNFSSGVNSLQTTKLSGGHHVHMEKAEELLPILHHFFSEI | not soluble |
